# Test results from publication PMC11417369, “DNA sequence and chromatin differentiate sequence-specific transcription factor binding in the human malaria parasite Plasmodium falciparum”.
# B1: CACACA_negctrl_site917 (dsDNA)
# DNA 1: ATTTCTATAAAAATAATCTACATTTTTTTTTTTTTT
# DNA 2: AAAAAAAAAAAAAATGTAGATTATTTTTATAGAAAT
# B2: CACACA_site7149 (dsDNA)
# DNA 1: CCCCCCCACGAACACACACACATACATACCACATAT
# DNA 2: ATATGTGGTATGTATGTGTGTGTGTTCGTGGGGGGG
# B3: CACACA_negctrl_site1450 (dsDNA)
# DNA 1: ATATATTTTTAAAAAAATTAAGAATTTTACATCTCC
# DNA 2: GGAGATGTAAAATTCTTAATTTTTTTAAAAATATAT
# B4: CACACA_site367 (dsDNA)
# DNA 1: CACCCACCCAGACACACACACACACCCCCACCCATA
# DNA 2: TATGGGTGGGGGTGTGTGTGTGTGTCTGGGTGGGTG
# B5: CACACA_negctrl_site593 (dsDNA)
# DNA 1: TAATTTTTGTAAACAGTCATGGATTCAAAAAAAAAA
# DNA 2: TTTTTTTTTTGAATCCATGACTGTTTACAAAAATTA
# B6: CACACA_negctrl_site1662 (dsDNA)
# DNA 1: TTATTCAGAAAAAAAAAAAAAAAAAAAAAAAAAAAA
# DNA 2: TTTTTTTTTTTTTTTTTTTTTTTTTTTTCTGAATAA
# B7: CACACA_negctrl_site196 (dsDNA)
# DNA 1: TTTTTAAATATATAATAGAATTGATTGTATTATATA
# DNA 2: TATATAATACAATCAATTCTATTATATATTTAAAAA
# B8: CACACA_site3850 (dsDNA)
# DNA 1: TAAAATAAAACAAACACACACACACCCCCACAAAAA
# DNA 2: TTTTTGTGGGGGTGTGTGTGTGTTTGTTTTATTTTA
# B9: CACACA_negctrl_site699 (dsDNA)
# DNA 1: TTTTATTTCAATCCACAAGGGATAAAATAAAGTTTT
# DNA 2: AAAACTTTATTTTATCCCTTGTGGATTGAAATAAAA
# B10: CACACA_negctrl_site1631 (dsDNA)
# DNA 1: TTTTAATTAAATACAAAAAAAAAAAAAAAAAAAAAA
# DNA 2: TTTTTTTTTTTTTTTTTTTTTTGTATTTAATTAAAA
# B11: CACACA_negctrl_site1225 (dsDNA)
# DNA 1: ATTTTTTTTTTTTTTTTTTATATGCTCTCCATGAGA
# DNA 2: TCTCATGGAGAGCATATAAAAAAAAAAAAAAAAAAT
# B12: CACACA_site2303 (dsDNA)
# DNA 1: CATATTCCCCCCCACACACACACACCCATACATACC
# DNA 2: GGTATGTATGGGTGTGTGTGTGTGGGGGGGAATATG
# B13: CACACA_negctrl_site1067 (dsDNA)
# DNA 1: ATTATTTTATGAGACATAAAAAAAAAAAAAAAAAAA
# DNA 2: TTTTTTTTTTTTTTTTTTTATGTCTCATAAAATAAT
# B14: CACACA_negctrl_site1460 (dsDNA)
# DNA 1: TATTTTACATAAAAGAAAAAAAAAAAAAAAAAAAAA
# DNA 2: TTTTTTTTTTTTTTTTTTTTTCTTTTATGTAAAATA
# B15: CACACA_negctrl_site1546 (dsDNA)
# DNA 1: TCATATATTCAAAAATTTAAAGTTAATAAAACTTGA
# DNA 2: TCAAGTTTTATTAACTTTAAATTTTTGAATATATGA
# B16: CACACA_negctrl_site737 (dsDNA)
# DNA 1: TTTTTAATTCAAAAAATAATATATTATATTTCAAAT
# DNA 2: ATTTGAAATATAATATATTATTTTTTGAATTAAAAA
# B17: CACACA_negctrl_site1242 (dsDNA)
# DNA 1: TATTATTGTCTTTCAAAAAAAAAAAAAAAAAAAAAA
# DNA 2: TTTTTTTTTTTTTTTTTTTTTTGAAAGACAATAATA
# B18: CACACA_negctrl_site1031 (dsDNA)
# DNA 1: ATTATTTGAACAACAAAAAAAAAGAAAAGAAAAGAA
# DNA 2: TTCTTTTCTTTTCTTTTTTTTTGTTGTTCAAATAAT
# B19: CACACA_negctrl_site1656 (dsDNA)
# DNA 1: TTTTGATCTGAAGGAACCTAAAAAGGGAAGAGAAAA
# DNA 2: TTTTCTCTTCCCTTTTTAGGTTCCTTCAGATCAAAA
# B20: CACACA_negctrl_site1634 (dsDNA)
# DNA 1: TTGGTAAATATATTTTGAATATAAGAAATATAGACG
# DNA 2: CGTCTATATTTCTTATATTCAAAATATATTTACCAA
# B21: CACACA_negctrl_site687 (dsDNA)
# DNA 1: GTTAAACATCTTCTGTGATATGTTAGAATATTATTT
# DNA 2: AAATAATATTCTAACATATCACAGAAGATGTTTAAC
# B22: CACACA_negctrl_site1330 (dsDNA)
# DNA 1: TAATAAATTCAAAACATAAAAAGGAAAAAAAAAAAA
# DNA 2: TTTTTTTTTTTTCCTTTTTATGTTTTGAATTTATTA
# B23: CACACA_negctrl_site996 (dsDNA)
# DNA 1: GAAAAAAAAAAAAAAAAAAAAAGGAAAAAAGTGAAA
# DNA 2: TTTCACTTTTTTCCTTTTTTTTTTTTTTTTTTTTTC
# B24: CACACA_negctrl_site1157 (dsDNA)
# DNA 1: TTTTTGTATTCTACCTTAACAATCTTAAAGATTTTT
# DNA 2: AAAAATCTTTAAGATTGTTAAGGTAGAATACAAAAA
# B25: CACACA_negctrl_site1356 (dsDNA)
# DNA 1: TGTTTAACACATGTTTCAAACAAAAAAAAAAAGACA
# DNA 2: TGTCTTTTTTTTTTTGTTTGAAACATGTGTTAAACA
# B26: CACACA_negctrl_site97 (dsDNA)
# DNA 1: AATAAAGGAAATAAATAATTTATTTTGTAAAATATG
# DNA 2: CATATTTTACAAAATAAATTATTTATTTCCTTTATT
# B27: CACACA_negctrl_site1417 (dsDNA)
# DNA 1: AAAAATATTATGATGTTTATTAGAAAGGAAAAAACT
# DNA 2: AGTTTTTTCCTTTCTAATAAACATCATAATATTTTT
# B28: CACACA_negctrl_site949 (dsDNA)
# DNA 1: TATATATGGGTACTAATTCCTTTAATTTCTTTAATT
# DNA 2: AATTAAAGAAATTAAAGGAATTAGTACCCATATATA
# B29: CACACA_negctrl_site908 (dsDNA)
# DNA 1: TTATGGATGGACAATAATAAAATTTTTACTTTTATT
# DNA 2: AATAAAAGTAAAAATTTTATTATTGTCCATCCATAA
# B30: CACACA_negctrl_site1820 (dsDNA)
# DNA 1: AGAATTGTTGTTAAAGAATTCTTTTTTATCCTTCCC
# DNA 2: GGGAAGGATAAAAAAGAATTCTTTAACAACAATTCT
# B31: CACACA_negctrl_site1518 (dsDNA)
# DNA 1: AAGGGAAAATAATAAAAGAAAAAGAAAAAAAAAAAA
# DNA 2: TTTTTTTTTTTTCTTTTTCTTTTATTATTTTCCCTT
# B32: CACACA_negctrl_site43 (dsDNA)
# DNA 1: TTCTTAATTCATACCATCAAAACATTTATTCATATC
# DNA 2: GATATGAATAAATGTTTTGATGGTATGAATTAAGAA
# B33: CACACA_negctrl_site1708 (dsDNA)
# DNA 1: AAAACTTTTTTAACAGAAAAATAGGGATACAATATA
# DNA 2: TATATTGTATCCCTATTTTTCTGTTAAAAAAGTTTT
# B34: CACACA_negctrl_site377 (dsDNA)
# DNA 1: GTATAACAACTGATAAAAGAAAAAAAATTTATTATT
# DNA 2: AATAATAAATTTTTTTTCTTTTATCAGTTGTTATAC
# B35: CACACA_negctrl_site1268 (dsDNA)
# DNA 1: ATATTTTTATGATGTATCCAAGAAATGGAACTATAT
# DNA 2: ATATAGTTCCATTTCTTGGATACATCATAAAAATAT
# B36: CACACA_negctrl_site847 (dsDNA)
# DNA 1: TTTTAAAATAAAAAAATAAAAAAAGGGGAAAAAAAA
# DNA 2: TTTTTTTTCCCCTTTTTTTATTTTTTTATTTTAAAA
# B37: CACACA_negctrl_site1516 (dsDNA)
# DNA 1: TAACCAAAAAAAAATATTTAAAATAAATATATATAT
# DNA 2: ATATATATATTTATTTTAAATATTTTTTTTTGGTTA
# B38: CACACA_negctrl_site1412 (dsDNA)
# DNA 1: TATATTTGGTTTCATTCATTTTTATAGAAATCTCAA
# DNA 2: TTGAGATTTCTATAAAAATGAATGAAACCAAATATA
# B39: CACACA_negctrl_site1682 (dsDNA)
# DNA 1: TGTTATATCAATAATATATAATAATACCCTTCTTTT
# DNA 2: AAAAGAAGGGTATTATTATATATTATTGATATAACA
# B40: CACACA_negctrl_site94 (dsDNA)
# DNA 1: TTTTTTTTTTTTTTTTTTTTTTTCTACCTATTTATT
# DNA 2: AATAAATAGGTAGAAAAAAAAAAAAAAAAAAAAAAA
# Target: T1, PF3D7_0420300 D1 (Plasmodium falciparum, UniProt Q8I1N6 1956-2015)
# T1 sequence: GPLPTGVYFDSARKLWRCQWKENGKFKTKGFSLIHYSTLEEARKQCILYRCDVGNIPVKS
# Assay: gcPBM; about 25 ug protein; PBS, 1% milk, 0.2 mg/ml BSA, salmon testes DNA, 0.03% Triton X-100
# Conditions: tags: N-terminal GST (pGEX-4T-1), kept; label: surface-attached array probe
row,Binder,binding signal
1,B1,"8.83 ln median PBM intensity, better of two orientations"
2,B2,"10.7 ln median PBM intensity, better of two orientations"
3,B3,"8.78 ln median PBM intensity, better of two orientations"
4,B4,"10.8 ln median PBM intensity, better of two orientations"
5,B5,"8.81 ln median PBM intensity, better of two orientations"
6,B6,"8.5 ln median PBM intensity, better of two orientations"
7,B7,"8.88 ln median PBM intensity, better of two orientations"
8,B8,"10.7 ln median PBM intensity, better of two orientations"
9,B9,"8.71 ln median PBM intensity, better of two orientations"
10,B10,"8.08 ln median PBM intensity, better of two orientations"
11,B11,"8.86 ln median PBM intensity, better of two orientations"
12,B12,"11 ln median PBM intensity, better of two orientations"
13,B13,"8.39 ln median PBM intensity, better of two orientations"
14,B14,"8.27 ln median PBM intensity, better of two orientations"
15,B15,"8.61 ln median PBM intensity, better of two orientations"
16,B16,"8.79 ln median PBM intensity, better of two orientations"
17,B17,"8.46 ln median PBM intensity, better of two orientations"

# Target: T2, AP2-LT D1 (Plasmodium falciparum, UniProt Q8IAM1 2520-2577)
# T2 sequence: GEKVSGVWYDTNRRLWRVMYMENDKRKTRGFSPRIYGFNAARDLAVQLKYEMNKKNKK
# Assay: as above
# Conditions: tags: N-terminal GST (pGEX-4T-1), kept; label: surface-attached array probe
row,Binder,binding signal
1,B1,"8.54 ln median PBM intensity, better of two orientations"
2,B18,"8.83 ln median PBM intensity, better of two orientations"
3,B2,"10.7 ln median PBM intensity, better of two orientations"
4,B3,"8.56 ln median PBM intensity, better of two orientations"
5,B4,"11 ln median PBM intensity, better of two orientations"
6,B19,"8.82 ln median PBM intensity, better of two orientations"
7,B5,"8.58 ln median PBM intensity, better of two orientations"
8,B6,"8.18 ln median PBM intensity, better of two orientations"
9,B20,"8.87 ln median PBM intensity, better of two orientations"
10,B21,"8.83 ln median PBM intensity, better of two orientations"
11,B22,"8.86 ln median PBM intensity, better of two orientations"
12,B23,"8.82 ln median PBM intensity, better of two orientations"
13,B24,"8.8 ln median PBM intensity, better of two orientations"
14,B7,"8.6 ln median PBM intensity, better of two orientations"
15,B8,"10.7 ln median PBM intensity, better of two orientations"
16,B9,"8.46 ln median PBM intensity, better of two orientations"
17,B25,"8.88 ln median PBM intensity, better of two orientations"
18,B26,"8.84 ln median PBM intensity, better of two orientations"
19,B27,"8.85 ln median PBM intensity, better of two orientations"
20,B10,"8.41 ln median PBM intensity, better of two orientations"

row,Binder,binding signal
1,B28,"8.85 ln median PBM intensity, better of two orientations"
2,B11,"8.79 ln median PBM intensity, better of two orientations"
3,B12,"10.8 ln median PBM intensity, better of two orientations"
4,B29,"8.82 ln median PBM intensity, better of two orientations"
5,B30,"8.88 ln median PBM intensity, better of two orientations"
6,B31,"8.87 ln median PBM intensity, better of two orientations"
7,B32,"8.88 ln median PBM intensity, better of two orientations"
8,B13,"8.39 ln median PBM intensity, better of two orientations"
9,B14,"8.54 ln median PBM intensity, better of two orientations"
10,B33,"8.86 ln median PBM intensity, better of two orientations"
11,B34,"8.85 ln median PBM intensity, better of two orientations"
12,B35,"8.85 ln median PBM intensity, better of two orientations"
13,B15,"8.35 ln median PBM intensity, better of two orientations"
14,B16,"8.36 ln median PBM intensity, better of two orientations"
15,B17,"8.23 ln median PBM intensity, better of two orientations"
16,B36,"8.83 ln median PBM intensity, better of two orientations"
17,B37,"8.88 ln median PBM intensity, better of two orientations"
18,B38,"8.84 ln median PBM intensity, better of two orientations"
19,B39,"8.8 ln median PBM intensity, better of two orientations"
20,B40,"8.86 ln median PBM intensity, better of two orientations"
